Assay [1] deals with PPIs of the SKEMPI data set (by PDBID). Particulars: single mutation to alanine, ref SKEMPI, cited from earlier work; for sk_ddG_kJ (SKEMPI experimental ΔΔG): complex given by PDBID, residue group SQNT.
Assay [2] shares this test system. Kind of assay: SKEMPI experimental ΔΔG, single mutations to alanine. In kind it is binding. The following applies: for sk_class: class of the SKEMPI experimental ΔΔG.

Changes are numbered by the printed parent chain.

B1: 1EMV NA24A (protein, UniProt P13479 1-86, looked up, variant N24A)
Colicin-E9 immunity protein: MELKHSISDYTEAEFLQLVTTICAADTSSEEELVKLVTHFEEMTEHPSGSDLIYYPKEGDDDSPSGIVNTVKQWRAANGKSGFKQG
On to B1, for which the “sk_ddG_kJ (SKEMPI experimental ΔΔG)” value in assay [1] is 0.59 kJ. In addition, the sk_class result in assay [2] is given as “Neutral (neutral (little effect) 4.184 kJ/mol < ΔΔG > −4.184 kJ/mol)”.

B2: 1A4Y RA457A (protein, UniProt P13489 2-461, looked up, variant R457A)
Ribonuclease inhibitor: SLDIQSLDIQCEELSDARWAELLPLLQQCQVVRLDDCGLTEARCKDISSALRVNPALAELNLRSNELGDVGVHCVLQGLQTPSCKIQKLSLQNCCLTGAGCGVLSSTLRTLPTLQELHLSDNLLGDAGLQLLCEGLLDPQCRLEKLQLEYCSLSAASCEPLASVLRAKPDFKELTVSNNDINEAGVRVLCQGLKDSPCQLEALKLESCGVTSDNCRDLCGIVASKASLRELALGSNKLGDVGMAELCPGLLHPSSRLRTLWIWECGITAKGCGDLCRVLRAKESLKELSLAGNELGDEGARLLCETLLEPGCQLESLWVKSCSFTAACCSHFSSVLAQNRFLLELQISNNRLEDAGVRELCQGLGQPGSVLRVLWLADCDVSDSSCSSLAATLLANHSLRELDLSNNCLGDAGILQLVESVRQPGCLLEQLVLYDIYWSEEMEDRLQALEKDKPSLAVIS
B2: the “sk_ddG_kJ (SKEMPI experimental ΔΔG, mutation to alanine)” value in assay [1] (PPI given by PDBID, sheet sortedByGroup, r_group DERKH) was -0.92 kJ. In assay [2] (class by ΔΔG threshold 4.184 kJ/mol, ref SKEMPI), the “sk_class (class of the SKEMPI experimental ΔΔG)” value was “Neutral (neutral (little effect) 4.184 kJ/mol < ΔΔG > −4.184 kJ/mol)”.

B3: 1DAN TU132A (protein, UniProt P13726 33-251, looked up, variant T132A)
extracellular domain: SGTTNTVAAYNLTWKSTNFKTILEWEPKPVNQVYTVQISTKSGDWKSKCFYTTDTECDLTDEIVKDVKQTYLARVFSYPAGNVESTGSAGEPLYENSPEFTPYLETNLGQPTIQSFEQVGTKVNVTVEDERALVRRNNTFLSLRDVFGKDLIYTLYYWKSSSSGKKTAKTNTNEFLIDVDKGENYCFSVQAVIPSRTVNRKSTDSPVECMGQEKGEFRE
modifications: extracellular domain
Take B3: the “sk_ddG_kJ (SKEMPI experimental ΔΔG)” value in assay [1] was 0.00 kJ. In addition, in assay [2], the sk_class result is “Neutral (neutral (little effect) 4.184 kJ/mol < ΔΔG > −4.184 kJ/mol)”.

B4: 1DAN TU197A (protein, UniProt P13726 33-251, looked up, variant T197A)
extracellular domain: B3 extracellular domain with A132T, T197A
modifications: extracellular domain
Take B4: in assay [1], the “sk_ddG_kJ (SKEMPI experimental ΔΔG)” value is 0.46 kJ. Besides, the sk_class result in assay [2] was “Neutral (neutral (little effect) 4.184 kJ/mol < ΔΔG > −4.184 kJ/mol)”.

B5: 1DAN TU139A (protein, UniProt P13726 33-251, looked up, variant T139A)
extracellular domain: B3 extracellular domain with A132T, T139A
modifications: extracellular domain
Turning to B5, in assay [1], the “sk_ddG_kJ (SKEMPI experimental ΔΔG)” value is reported as -0.04 kJ. Further, the sk_class result in assay [2] is on record as “Neutral (neutral (little effect) 4.184 kJ/mol < ΔΔG > −4.184 kJ/mol)”.

B6: 1DAN SU163A (protein, UniProt P13726 33-251, looked up, variant S163A)
extracellular domain: B3 extracellular domain with A132T, S163A
modifications: extracellular domain
In the case of B6, the “sk_ddG_kJ (SKEMPI experimental ΔΔG)” value in assay [1] was 0.08 kJ. Also, the sk_class result in assay [2] is “Neutral (neutral (little effect) 4.184 kJ/mol < ΔΔG > −4.184 kJ/mol)”.

B7: 1DAN TU172A (protein, UniProt P13726 33-251, looked up, variant T172A)
extracellular domain: B3 extracellular domain with A132T, T172A
modifications: extracellular domain
Take B7: the “sk_ddG_kJ (SKEMPI experimental ΔΔG)” value in assay [1] is recorded as -0.08 kJ. The sk_class result in assay [2] was “Neutral (neutral (little effect) 4.184 kJ/mol < ΔΔG > −4.184 kJ/mol)”.

B8: 1DAN TU203A (protein, UniProt P13726 33-251, looked up, variant T203A)
extracellular domain: B3 extracellular domain with A132T, T203A
modifications: extracellular domain
As for B8, in assay [1], the “sk_ddG_kJ (SKEMPI experimental ΔΔG)” value is 0.59 kJ. In addition, in assay [2], the sk_class result is “Neutral (neutral (little effect) 4.184 kJ/mol < ΔΔG > −4.184 kJ/mol)”.

Source of the values: publication PMC6804253, “Predicting and Experimentally Validating Hot-Spot Residues at Protein–Protein Interfaces” (ACS Chemical Biology, 2019).
